The values below are quoted from earlier work in publication PMC7611479.

The target of data set [1] is uroguanylin (Homo sapiens) (UniProt Q16661).
The next data set deals with guanylin (Homo sapiens) (UniProt Q02747).

On to GC-C ECD (from UniProt P25092), for which the Kd in data set [1] is 1 nM; with guanylin (Homo sapiens) it was 10 nM.

In general, Kd refers to a measure of binding affinity in units of concentration.
